In this test the target is T1, β2-microglobulin (UniProt P61769 21-119).
T1 construct: also called beta2-microglobulin
Briefly: ELISA.

T1 sequence (P61769 21-119 limits assumed): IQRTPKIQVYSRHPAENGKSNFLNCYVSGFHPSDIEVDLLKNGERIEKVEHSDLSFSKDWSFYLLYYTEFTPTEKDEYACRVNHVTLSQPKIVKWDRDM

B1: A2-DKK1 mAb (C2) (antibody, V domains shown)
VH: DVQLVESGGGLVQPGGSRKLSCAASGFTFSSFGMHWVRQAPEKGLEWVAYISSGSSTIYYADTVKGRFTISRDNPKNTLFLQMTSLRSEDTAMYYCARPYYYGSTYDAMDYWGQGTSVTVSS
VL: DIVMTQSHKLMSTSVGDRVTITCKASQDVGSTVAWYQQKPGQSPKLLIYWTSTRHTGVPDRFTGSGSGTDFTLTISNVQSVDLAVYFCQKFGSYPLTFGGGTKLEIK
notes: Murine monoclonal antibody from a Balb/c x SP2/0 hybridoma; also called C2 mAb; antibody C2
For B1, the binding result is recorded as “no binding”.

The record behind these values is patent US20220089707A1 (University of Texas, published 2022).
